Measured values published in patent US20140274782A1, “AFFINITY REAGENTS AND METHODS FOR DETECTION, PURIFICATION, AND PROTEOMIC ANALYSIS OF METHYLATED PROTEINS” (The Board of Trustees of the Leland Stanford Junior …, priority 2013, published 2014).

T1: G9a and GLP (Homo sapiens, UniProt Q96KQ7+Q9H9B1)
T1 sequence (Q96KQ7 2-1210 limits assumed): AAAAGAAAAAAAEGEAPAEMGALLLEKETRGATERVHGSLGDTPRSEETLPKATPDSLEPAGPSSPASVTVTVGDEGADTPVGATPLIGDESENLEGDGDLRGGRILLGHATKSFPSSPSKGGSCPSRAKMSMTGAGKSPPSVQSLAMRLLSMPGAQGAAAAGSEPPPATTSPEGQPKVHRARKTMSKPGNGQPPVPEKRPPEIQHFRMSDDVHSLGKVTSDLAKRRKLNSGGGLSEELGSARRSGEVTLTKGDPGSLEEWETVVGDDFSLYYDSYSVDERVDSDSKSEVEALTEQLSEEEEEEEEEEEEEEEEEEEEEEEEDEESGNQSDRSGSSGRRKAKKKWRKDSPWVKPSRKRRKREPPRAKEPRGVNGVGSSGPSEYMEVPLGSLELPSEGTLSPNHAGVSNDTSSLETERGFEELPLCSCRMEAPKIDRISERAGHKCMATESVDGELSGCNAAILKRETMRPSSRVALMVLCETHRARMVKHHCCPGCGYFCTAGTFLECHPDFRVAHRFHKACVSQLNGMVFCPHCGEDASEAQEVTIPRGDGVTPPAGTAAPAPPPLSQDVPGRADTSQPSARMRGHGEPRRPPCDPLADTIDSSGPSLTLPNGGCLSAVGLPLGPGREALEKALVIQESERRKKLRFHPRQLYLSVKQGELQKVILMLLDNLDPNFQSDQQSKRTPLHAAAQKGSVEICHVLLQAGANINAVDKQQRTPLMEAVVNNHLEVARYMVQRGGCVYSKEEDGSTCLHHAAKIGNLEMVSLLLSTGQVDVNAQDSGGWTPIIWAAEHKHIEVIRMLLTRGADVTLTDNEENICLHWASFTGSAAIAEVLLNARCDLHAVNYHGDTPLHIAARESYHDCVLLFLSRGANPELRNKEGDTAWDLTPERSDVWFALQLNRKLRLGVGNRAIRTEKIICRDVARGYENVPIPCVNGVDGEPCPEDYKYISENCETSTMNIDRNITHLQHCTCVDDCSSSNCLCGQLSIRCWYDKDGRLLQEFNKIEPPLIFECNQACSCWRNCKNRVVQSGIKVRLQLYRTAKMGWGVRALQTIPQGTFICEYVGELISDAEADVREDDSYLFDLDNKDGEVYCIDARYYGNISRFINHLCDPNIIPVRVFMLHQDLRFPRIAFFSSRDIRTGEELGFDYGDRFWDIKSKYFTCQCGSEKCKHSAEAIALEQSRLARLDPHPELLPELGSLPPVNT
T1 sequence (Q9H9B1 2-1298 limits assumed): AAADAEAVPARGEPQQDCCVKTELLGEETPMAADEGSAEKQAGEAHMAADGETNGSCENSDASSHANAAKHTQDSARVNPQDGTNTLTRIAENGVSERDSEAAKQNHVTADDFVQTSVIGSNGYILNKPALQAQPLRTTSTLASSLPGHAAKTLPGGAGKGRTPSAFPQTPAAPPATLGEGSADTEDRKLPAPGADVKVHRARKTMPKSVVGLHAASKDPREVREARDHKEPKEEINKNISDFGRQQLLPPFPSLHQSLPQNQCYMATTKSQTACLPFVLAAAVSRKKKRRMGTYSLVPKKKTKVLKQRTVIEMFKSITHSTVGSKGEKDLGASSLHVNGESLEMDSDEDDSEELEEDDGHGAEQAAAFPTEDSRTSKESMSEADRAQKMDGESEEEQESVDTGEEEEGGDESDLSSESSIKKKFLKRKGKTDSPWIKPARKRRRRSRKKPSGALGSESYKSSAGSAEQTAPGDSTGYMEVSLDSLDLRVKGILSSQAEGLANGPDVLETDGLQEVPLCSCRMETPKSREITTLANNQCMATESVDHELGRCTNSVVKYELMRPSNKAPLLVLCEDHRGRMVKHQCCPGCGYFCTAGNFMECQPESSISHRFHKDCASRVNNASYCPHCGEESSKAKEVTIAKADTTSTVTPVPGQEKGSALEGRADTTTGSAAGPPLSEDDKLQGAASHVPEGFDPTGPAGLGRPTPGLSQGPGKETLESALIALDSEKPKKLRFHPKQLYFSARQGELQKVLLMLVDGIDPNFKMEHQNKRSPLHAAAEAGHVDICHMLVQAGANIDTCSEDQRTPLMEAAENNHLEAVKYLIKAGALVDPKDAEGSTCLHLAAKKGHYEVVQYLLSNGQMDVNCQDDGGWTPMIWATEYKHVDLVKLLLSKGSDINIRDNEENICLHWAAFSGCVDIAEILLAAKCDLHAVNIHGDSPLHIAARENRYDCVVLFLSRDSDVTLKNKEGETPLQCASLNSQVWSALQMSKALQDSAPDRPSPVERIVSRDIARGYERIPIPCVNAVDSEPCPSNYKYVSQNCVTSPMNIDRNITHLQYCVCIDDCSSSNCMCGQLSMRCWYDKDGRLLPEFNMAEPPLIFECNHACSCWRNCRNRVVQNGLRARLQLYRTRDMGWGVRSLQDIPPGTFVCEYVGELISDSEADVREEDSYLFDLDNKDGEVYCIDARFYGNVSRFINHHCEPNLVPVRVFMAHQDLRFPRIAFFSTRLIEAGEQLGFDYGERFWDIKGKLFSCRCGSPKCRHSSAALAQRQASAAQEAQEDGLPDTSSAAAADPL


Molecular target: T1, G9a and GLP
Test: Triple SILAC pull-down after UNC0638 treatment of 293T cells, DMSO/UNC0638 ratio of protein captured by 3×MBT;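 also: mass spectrometry (Q-Exactive) SILAC quantitation, DMSO/UNC0638 ratio computed after subtracting 3×MBTD355N mutant pull-down background, only proteins with at least twofold 3×MBT over mutant signal considered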
Assay type: cell-based
Parameters: cells were treated for 24 hours with UNC0638 at 2.5 μM or DMSO vehicle control; endogenous in cells; host or cells: HEK 293T
Conditions: for Relative to UNC0638 UNC Heavy: UNC0638 in heavy SILAC media; for Relative to UNC0638 UNC Light: UNC0638 in light SILAC media; for Relative to UNC0638 Average: average of UNC Light and UNC Heavy experiments
[1] = SILAC ratio DMSO relative to UNC0638, pull-down with 3xMBT, all values in log base 2
[2] = SILAC ratio DMSO/UNC0638 of protein pulled down with 3xMBT

| Relative to UNC0638 UNC Heavy [1] [log base 2] | Relative to UNC0638 UNC Light [1] [log base 2] | Relative to UNC0638 Average (all values in log base 2) [log base 2] | Relative to UNC0638 UNC Heavy [2] [log base 2] | Relative to UNC0638 UNC Light [2] [log base 2] | Relative to UNC0638 Average [log base 2] | Molecule |
| --- | --- | --- | --- | --- | --- | --- |
| 0.59 | −0.85 | −0.13 | – | – | – | SCML2: protein with methylated lysine identified in 3xMBT pull-down (protein, UniProt Q9UQR0 1-700, looked up) Sex comb on midleg-like …: MGQTVNEDSMDVKKENQEKTPQSSTSSVQRDDFHWEEYLKETGSISAPSECFRQSQIPPVNDFKVGMKLEARDPRNATSVCIATVIGITGARLRLRLDGSDNRNDFWRLVDSPDIQPVGTCEKEGDLLQPPLGYQMNTSSWPMFLLKTLNGSEMASATLFKKEPPKPPLNNFKVGMKLEAIDKKNPYLICPATIGDVKGDEVHITFDGWSGAFDYWCKYDSRDIFPAGWCRLTGDVLQPPGTSVPIVKNIAKTESSPSEASQHSMQSPQKTTLILPTQQVRRSSRIKPPGPTAVPKRSSSVKNITPRKKGPNSGKKEKPLPVICSTSAASLKSLTRDRGMLYKDVASGPCKIVMSTVCVYVNKHGNFGPHLDPKRIQQLPDHFGPGPVNVVLRRIVQACVDCALETKTVFGYLKPDNRGGEVITASFDGETHSIQLPPVNSASFALRFLENFCHSLQCDNLLSSQPFSSSRGHTHSSAEHDKNQSAKEDVTERQSTKRSPQQTVPYVVPLSPKLPKTKEYASEGEPLFAGGSAIPKEENLSEDSKSSSLNSGNYLNPACRNPMYIHTSVSQDFSRSVPGTTSSPLVGDISPKSSPHEVKFQMQRKSEAPSYIAVPDPSVLKQGFSKDPSTWSVDEVIQFMKHTDPQISGPLADLFRQHEIDGKALFLLKSDVMMKYMGLKLGPALKLCYYIEKLKEGKYS |
| – | – | – | −0.86 | 1.33 | 0.24 | NHP2L1: protein with methylated lysine identified in 3xMBT pull-down (protein, UniProt P55769 1-128, looked up) NHP2-like protein 1: MTEADVNPKAYPLADAHLTKKLLDLVQQSCNYKQLRKGANEATKTLNRGISEFIVMAADAEPLEIILHLPLLCEDKNVPYVFVRSKQALGRACGVSRPVIACSVTIKEGSQLKQQIQSIQQSIERLLV |
| – | – | – | 0.24 | 0.15 | 0.20 | MCM4: protein with methylated lysine identified in 3xMBT pull-down (protein, UniProt P33991 2-863, looked up, methylated lysine, protein with methylated lysine identified in 3xMBT pull-down) DNA replication licensing …: SSPASTPSRRGSRRGRATPAQTPRSEDARSSPSQRRRGEDSTSTGELQPMPTSPGVDLQSPAAQDVLFSSPPQMHSSAIPLDFDVSSPLTYGTPSSRVEGTPRSGVRGTPVRQRPDLGSAQKGLQVDLQSDGAAAEDIVASEQSLGQKLVIWGTDVNVAACKENFQRFLQRFIDPLAKEEENVGIDITEPLYMQRLGEINVIGEPFLNVNCEHIKSFDKNLYRQLISYPQEVIPTFDMAVNEIFFDRYPDSILEHQIQVRPFNALKTKNMRNLNPEDIDQLITISGMVIRTSQLIPEMQEAFFQCQVCAHTTRVEMDRGRIAEPSVCGRCHTTHSMALIHNRSLFSDKQMIKLQESPEDMPAGQTPHTVILFAHNDLVDKVQPGDRVNVTGIYRAVPIRVNPRVSNVKSVYKTHIDVIHYRKTDAKRLHGLDEEAEQKLFSEKRVELLKELSRKPDIYERLASALAPSIYEHEDIKKGILLQLFGGTRKDFSHTGRGKFRAEINILLCGDPGTSKSQLLQYVYNLVPRGQYTSGKGSSAVGLTAYVMKDPETRQLVLQTGALVLSDNGICCIDEFDKMNESTRSVLHEVMEQQTLSIAKAGIICQLNARTSVLAAANPIESQWNPKKTTIENIQLPHTLLSRFDLIFLLLDPQDEAYDRRLAHHLVALYYQSEEQAEEELLDMAVLKDYIAYAHSTIMPRLSEEASQALIEAYVDMRKIGSSRGMVSAYPRQLESLIRLAEAHAKVRLSNKVEAIDVEEAKRLHREALKQSATDPRTGIVDISILTTGMSATSRKRKEELAEALKKLILSKGKTPALKYQQLFEDIRGQSDIAITKDMFEEALRALADDDFLTVTGKTVRLL |
